Reference: PMC10147665

B1: endogenous PDPK1 [not stated (endogenous; cell line of this co-IP not named)] / endogenous PID1 [not stated (endogenous; cell line of this co-IP not named)] (parent)
chain 1: MFSLPLSLPLCEDTAFLPSKCCSSHKTIKQARTLIMIFLASGTHFQTMLKSKLNVLTLKKEPLPAVIFHEPEAIELCTTTPLMKTRTHSGCKVTYLGKVSTTGMQFLSGCTEKPVIELWKKHTLAREDVFPANALLEIRPFQVWLHHLDHKGEATVHMDTFQVARIAYCTADHNVSPNIFAWVYREINDDLSYQMDCHAVECESKLEAKKLAHAMMEAFRKTFHSMKSDGRIHSNSSSEEVSQELESDDG
chain 2: MARTTSQLYDAVPIQSSVVLCSCPSPSMVRTQTESSTPPGIPGGSRQGPAMDGTAAEPRPGAGSLQHAQPPPQPRKKRPEDFKFGKILGEGSFSTVVLARELATSREYAIKILEKRHIIKENKVPYVTRERDVMSRLDHPFFVKLYFTFQDDEKLYFGLSYAKNGELLKYIRKIGSFDETCTRFYTAEIVSALEYLHGKGIIHRDLKPENILLNEDMHIQITDFGTAKVLSPESKQARANSFVGTAQYVSPELLTEKSACKSSDLWALGCIIYQLVAGLPPFRAGNEYLIFQKIIKLEYDFPEKFFPKARDLVEKLLVLDATKRLGCEEMEGYGPLKAHPFFESVTWENLHQQTPPKLTAYLPAMSEDDEDCYGNYDNLLSQFGCMQVSSSSSSHSLSASDTGLPQRSGSNIEQYIHDLDSNSFELDLQFSEDEKRLLLEKQAGGNPWHQFVENNLILKMGPVDKRKGLFARRRQLLLTEGPHLYYVDPVNKVLKGEIPWSQELRPEAKNFKTFFVHTPNRTYYLMDPSGNAHKWCRKIQEVWRQRYQSHPDAAVQ

Variants of: B1
Experiment: co-immunoprecipitation (IP: HA, IB: PID1), band densitometry
Conditions: with endogenous PID1 [not stated (endogenous; cell line of this co-IP not named)]; IGF-1 + (insulin -); read off a plot

Row | response | Variant
1 | 0.06 | chain 2 Y9F Y373F Y376F

Same assay, conditions: with endogenous PID1 [not stated (endogenous; cell line of this co-IP not named)]; insulin + (IGF-1 -); read off a plot

Row | response | Variant
2 | 0.06 | chain 2 Y9F Y373F Y376F

Same assay, conditions: with endogenous PID1 [not stated (endogenous; cell line of this co-IP not named)]; no growth factor (IGF-1 -, insulin -); read off a plot

Row | response | Variant
3 | 0.07 | chain 2 Y9F Y373F Y376F
